From publication PMC4419654, “LSD1 and HY5 antagonistically regulate red light induced-programmed cell death in Arabidopsis” (Frontiers in Plant Science, 2015)

Biological target: the molecule itself
Test: immunoblot of plant extract made without DTT; total protein of RL-treated WT plants extracted without DTT; the legend calls it an immunoprecipitation analysis; dimer and monomer LSD1 detected

B1: lesion simulating disease 1 (LSD1) (natural protein, UniProt P94077 1-189, looked up)
chain: MKVADMQDQLVCHGCRNLLMYPRGASNVRCALCNTINMVPPPPPPHDMAHIICGGCRTMLMYTRGASSVRCSCCQTTNLVPAHSNQVAHAPSSQVAQINCGHCRTTLMYPYGASSVKCAVCQFVTNVNMSNGRVPLPTNRPNGTACPPSTSTSTPPSQTQTVVVENPMSVDESGKLVSNVVVGVTTDKK
notes: lesion simulating disease 1 (LSD1), C2C2 zinc finger protein with three zinc finger domains, Arabidopsis; detected with LSD1 antibody (Agrisera); source: endogenous, Arabidopsis WT plant total protein extract
Question: B1 was tested. Which “stoichiometry N” value did it give?
Answer: 2
